Results on 1 protein are retold here after FireProtDB (doi:10.1006/jmbi.1999.2569).

For the data set the following is noted: Bacillus amyloliquefaciens; pH 6.3; Thermal; DSC; MES 50 mM; whole UniProt chain shown.

B1: Ribonuclease wild type, P00648 (protein)
chain: MMKMEGIALKKRLSWISVCLLVLVSAAGMLFSTAAKTETSSHKAHTEAQVINTFDGVADYLQTYHKLPDNYITKSEAQALGWVASKGNLADVAPGKSIGGDIFSNREGKLPGKSGRTWREADINYTSGFRNSDRILYSSDWLIYKTTDHYQTFTKIR
On to B1, for which the Tm is 54.1 °C.
